B1: LS-48 (dsRNA)
RNA 1: GGACGAGCUGUACACCAUGGUGACCGCCGCCGGGCGUGAUGAGCUCCAAGGACCCCAACGAGAAGCGCGAUCACAUGAUCUACUUCGGCUUCGGCGUGAUGAGCCCUGUGCUGCUGCCCGAUAACCACUACCUGCCAUCACCCACGGCCCUGGGCGUGAUGAGCAUUCCACCCAGAGCGC
RNA 2: GGUGUACAGCUCGUCCGCGCUCUGGGUGGAAUGCUCUGACCCAGGGCCGUGGGUGAUGGCAGGUAGUGGUUAUCGGGCAGCAGCACAGGGCUCUGACCGAAGCCGAAGUAGAUCAUGUGAUCGCGCUUCUCGUUGGGGUCCUUGGAGCUCUGACCCGGCGGCGGUCACCAU
B2: LS-15 (dsRNA)
RNA 1: GGUGAAGGGCGUGAUGAGCGAGAAGUCCGGCUUCGGCGUGAUGAGCCCUGUGCCGGCCCUGGGCGUGAUGAGCAUUCCACC
RNA 2: GGACUUCUCGCUCUGACCCUUCACCGGUGGAAUGCUCUGACCCAGGGCCGGCACAGGGCUCUGACCGAAGCC
B3: LS-26 (dsRNA)
RNA 1: GGCGCAAAGGCCUGUAAUCGGCGUGAUGAGCCAUGCGAGGAGGAAAUGAAGUCCAAUGGCGUGAUGAGCCUCUACGGGAAGAGCAUGCCCAUCCGGGCGUGAUGAGCGUAGCAA
RNA 2: GGCCUUUGCGCCUUGCUACGCUCUGACCCGGAUGGGCAUGCUCUUCCCGUAGAGGCUCUGACCAUUGGACUUCAUUUCCUCCUCGCAUGGCUCUGACCGAUUACA
B4: LS-26-siGFP (dsRNA)
RNA 1: GGCAUCAAGGUGAACUUCAAGAUCCGCAAAGGCCUGUAAUCGGCGUGAUGAGCCAUGCGAGGA
RNA 2: GGCAUCAAGGUGAACUUCAAGAUCCGGAAAUGAAGUCCAAUGGCGUGAUGAGCCUCUACGGGA
RNA 3: GGCAUCAAGGUGAACUUCAAGAUCCAGAGCAUGCCCAUCCGGGCGUGAUGAGCGUAGCAAGGC
RNA 4: B3 RNA 2
RNA 5: GGAUCUUGAAGUUCACCUUGAUGCCAG

Key:
L7Ae [1] = molecular target: T1, L7Ae (UniProt O29494 O29494:1-119); assay: EMSA; triangle also by HS-AFM; details: tags: expressed from pET-28(+) (Novagen) in E. coli Rosetta; chain copies: 3 per LS-RNA; loop of double-stranded RNA with three K-turn motifs
Method: (§1) Subsequently, according to electrophoretic mobility shift assay (EMSA), the interaction of L7Ae with the LS-RNA was analyzed. After completion of electrophoresis using polyacrylamide gel, the polyacrylamide gel was stained with SYBR Green I and II (Lonza), and formation of an RNA-protein complex was then observed. As a result, it was confirmed that a triangular structure was formed by the interaction of the LS-RNA with L7Ae, as expected, in all of the LS-RNAs (FIG. 2).

L7Ae-Affibody (L7Ae-AFB) [2] = molecular target: T2, L7Ae-Affibody (L7Ae-AFB) (UniProt O29494 O29494:1-119); assay: EMSA; details: chain copies: 3 per LS-RNA; loop of double-stranded RNA with three K-turn motifs
Method: as §1
(§2) The function to recognize specific cancer cells was imparted to Tri-RNP. Specifically, a protein (L7Ae-AFB), in which the N-terminus of an affibody_{ZHER2:342} peptide (SEQ ID NOS: 25 and 26) was fused with the C-terminus of L7Ae via […] (SEQ ID NOS: 27 and 28), was prepared by transfecting a plasmid into Escherichia coli in accordance with Ohno, H., et al., as described above. This L7Ae-AFB was added to LS-RNA to construct RNP (Tri-AFB, FIG. 9A). When LS-26 was used as RNA (Tri-26-AFB), a triangular structure was found by HS-AFM, and it was also confirmed that a substance assumed as AFB was added to each vertex (FIG. 9B). Moreover, according to EMSA, it was confirmed that L7Ae-AFB binds to a K-turn motif, as with Tri-26 (FIG. 10).

L7Ae [3] = molecular target: T1, L7Ae; assay: EMSA; 150 KCl (unit printed ml), 1.5 mM MgCl2, 20 mM HEPES-KOH pH 7.5; triangle also by HS-AFM; details: tags: expressed from pET-28(+) (Novagen) in E. coli Rosetta; chain copies: 3 per LS-RNA; loop of double-stranded RNA with three K-turn motifs
Method: as §1

L7Ae-Affibody (L7Ae-AFB) [4] = molecular target: T2, L7Ae-Affibody (L7Ae-AFB); assay: EMSA; triangle also by HS-AFM; details: chain copies: 3 per LS-RNA; loop of double-stranded RNA with three K-turn motifs
Method: as §1, §2

L7Ae [5] = molecular target: T1, L7Ae; assay: HS-AFM, triangular structure with L7Ae; details: tags: expressed from pET-28(+) (Novagen) in E. coli Rosetta; chain copies: 3 per LS-RNA; loop with three K-turn motifs and a GFP siRNA duplex at each side
Method: Subsequently, the Tri-RNPs were observed by […]. […] The cantilever was set at a resonance frequency of 400-1000 kHz and at a spring constant of 0.1-0.2 N/m. A probe was deposited on the cantilever by electron beam. The mica surface was coated with 0.1% APTES, and thereafter, a 50 nM sample that had been dissolved in an RNP-binding solvent and an AFM observation solvent (20 mM Tris-HCl (pH7.6) and 10 mM MgCl2) was left at rest on the mica. The image was analyzed using software such as Image J and WSxM.
Specifically, five RNAs were hybridized with S-26, L-26-1 (SEQ ID NO: 29), L-26-2 (SEQ ID NO: 30), L-26-3 (SEQ ID NO: 31), and antisense-GFP (SEQ ID NO: 32) in the same manner as described above, such that L-26 had siRNA for GFP at the three sides thereof, thereby producing LS-26-siGFP. Subsequently, LS-26-siGFP was mixed with L7Ae to produce Tri-26-siGFP having a triangular structure, and the structure of the Tri-26-siGFP was then confirmed by HS-AFM. […] As given above, a triangular structure (Tri-26-siGFP) having a structure containing three double strands having siRNA function could be constructed.

T2 sequence (O29494 whole entry, one chain of several): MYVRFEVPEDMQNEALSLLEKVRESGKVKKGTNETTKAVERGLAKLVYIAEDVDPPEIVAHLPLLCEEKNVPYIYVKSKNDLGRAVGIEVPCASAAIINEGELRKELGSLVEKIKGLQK
T1 sequence (O29494 whole entry, one chain of several): as above

Binder | binding result (L7Ae [1]) | binding result (L7Ae-Affibody (L7Ae-AFB) [2]) | binding result (L7Ae [3]) | binding result (L7Ae-Affibody (L7Ae-AFB) [4]) | binding result (L7Ae [5])
B1 | binds | binds | – | – | –
B2 | – | binds | binds | – | –
B3 | binds | – | – | binds | –
B4 | – | – | – | – | binds
